Assay results reported in publication PMC5244417, “Time-resolved neutron scattering provides new insight into protein substrate processing by a AAA+ unfoldase” (Scientific Reports, 2017).
Where “and” joins values, the source holds several entries; their conditions need not be identical. Equal entries are not always repeated.

Target: the molecule itself
Assay: SEC; Superose 6 gel filtration of purified PAN, before heating

B1: PAN (proteasome activating nucleotidase) unfoldase from Methanocaldococcus jannaschii (enzyme, UniProt Q58576 1-430, looked up)
chain: MVFEEFISTELKKEKKAFTEEFKEEKEINDNSNLKNDLLKEELQEKARIAELESRILKLELEKKELERENLQLMKENEILRRELDRMRVPPLIVGTVVDKVGERKVVVKSSTGPSFLVNVSHFVNPDDLAPGKRVCLNQQTLTVVDVLPENKDYRAKAMEVDERPNVRYEDIGGLEKQMQEIREVVELPLKHPELFEKVGIEPPKGILLYGPPGTGKTLLAKAVATETNATFIRVVGSELVKKFIGEGASLVKDIFKLAKEKAPSIIFIDEIDAIAAKRTDALTGGDREVQRTLMQLLAEMDGFDARGDVKIIGATNRPDILDPAILRPGRFDRIIEVPAPDEKGRLEILKIHTRKMNLAEDVNLEEIAKMTEGCVGAELKAICTEAGMNAIRELRDYVTMDDFRKAVEKIMEKKKVKVKEPAHLDVLYR
notes: Purified as a mixture of dodecamers and hexamers; Monodisperse hexamers were obtained after heating at 60 °C with ATP and MgCl2; Perdeuterated PAN (dPAN) was used for the SANS data on PAN; also called MjPAN; PAN complex
stoichiometry N: 12 and 6
